B1: Pistol ribozyme (parent)
chain: GGGUCGUUGUUCCAUAAUCGCGUGGAUAUGGCACGCAAGUUUCUACCGGGCACCGUAAAUGUCCGACUGGAGCCGUUCGGGCGGCUAUAAACAGACCUCAGGCCCGAAGCGUGGCGGCACCUGCCGCCGGUGGUAAAAAAGAUCGGAAGAGCACACGUCU

Variants of: B1
Test: aptazyme ON/OFF ratio, guanine; higher = stronger switching; co-transcriptional cleavage with and without guanine

Variant | aptazyme ON/OFF ratio
GGGUCGCGGAAGGAUAAUCGCGUGGAUAUGGCACGCAAGUUUCUACCGGGCACCGUAAAUGUCCGACUGGAGCCGUUCGGGCGGCUAUAAACAGACCUCAGGCCCGAAGCGUGGCGGCACCUGCCGCCGGUGGUAAAAAAGAUCGGAAGAGCACACGUCU [U7C U8G U10A U11A C12G C13G] | 1.13
GGGUCGCGGAAGAAUAAUCGCGUGGAUAUGGCACGCAAGUUUCUACCGGGCACCGUAAAUGUCCGACUGGAGCCGUUCGGGCGGCUAUAAACAGACCUCAGGCCCGAAGCGUGGCGGCACCUGCCGCCGGUGGUAAAAAAGAUCGGAAGAGCACACGUCU [U7C U8G U10A U11A C12G C13A] | 1.11
GGGUCGCGGAAGUAUAAUCGCGUGGAUAUGGCACGCAAGUUUCUACCGGGCACCGUAAAUGUCCGACUGGAGCCGUUCGGGCGGCUAUAAACAGACCUCAGGCCCGAAGCGUGGCGGCACCUGCCGCCGGUGGUAAAAAAGAUCGGAAGAGCACACGUCU [U7C U8G U10A U11A C12G C13U] | 1.17
GGGUCGCGGAUUGAUAAUCGCGUGGAUAUGGCACGCAAGUUUCUACCGGGCACCGUAAAUGUCCGACUGGAGCCGUUCGGGCGGCUAUAAACAGACCUCAGGCCCGAAGCGUGGCGGCACCUGCCGCCGGUGGUAAAAAAGAUCGGAAGAGCACACGUCU [U7C U8G U10A C12U C13G] | 1.13
GGGUCGCGGAUUAAUAAUCGCGUGGAUAUGGCACGCAAGUUUCUACCGGGCACCGUAAAUGUCCGACUGGAGCCGUUCGGGCGGCUAUAAACAGACCUCAGGCCCGAAGCGUGGCGGCACCUGCCGCCGGUGGUAAAAAAGAUCGGAAGAGCACACGUCU [U7C U8G U10A C12U C13A] | 1.13
GGGUCGCGGAUUUAUAAUCGCGUGGAUAUGGCACGCAAGUUUCUACCGGGCACCGUAAAUGUCCGACUGGAGCCGUUCGGGCGGCUAUAAACAGACCUCAGGCCCGAAGCGUGGCGGCACCUGCCGCCGGUGGUAAAAAAGAUCGGAAGAGCACACGUCU [U7C U8G U10A C12U C13U] | 1.33
GGGUCGCGGAUAGAUAAUCGCGUGGAUAUGGCACGCAAGUUUCUACCGGGCACCGUAAAUGUCCGACUGGAGCCGUUCGGGCGGCUAUAAACAGACCUCAGGCCCGAAGCGUGGCGGCACCUGCCGCCGGUGGUAAAAAAGAUCGGAAGAGCACACGUCU [U7C U8G U10A C12A C13G] | 1.08
GGGUCGCGGAUAUAUAAUCGCGUGGAUAUGGCACGCAAGUUUCUACCGGGCACCGUAAAUGUCCGACUGGAGCCGUUCGGGCGGCUAUAAACAGACCUCAGGCCCGAAGCGUGGCGGCACCUGCCGCCGGUGGUAAAAAAGAUCGGAAGAGCACACGUCU [U7C U8G U10A C12A C13U] | 1.23
GGGUCGCGGAUAAAUAAUCGCGUGGAUAUGGCACGCAAGUUUCUACCGGGCACCGUAAAUGUCCGACUGGAGCCGUUCGGGCGGCUAUAAACAGACCUCAGGCCCGAAGCGUGGCGGCACCUGCCGCCGGUGGUAAAAAAGAUCGGAAGAGCACACGUCU [U7C U8G U10A C12A C13A] | 1.16
GGGUCGCGUUGCUAUAAUCGCGUGGAUAUGGCACGCAAGUUUCUACCGGGCACCGUAAAUGUCCGACUGGAGCCGUUCGGGCGGCUAUAAACAGACCUCAGGCCCGAAGCGUGGCGGCACCUGCCGCCGGUGGUAAAAAAGAUCGGAAGAGCACACGUCU [U7C U8G G9U U11G C13U] | 1.21
GGGUCGCGUUGCAAUAAUCGCGUGGAUAUGGCACGCAAGUUUCUACCGGGCACCGUAAAUGUCCGACUGGAGCCGUUCGGGCGGCUAUAAACAGACCUCAGGCCCGAAGCGUGGCGGCACCUGCCGCCGGUGGUAAAAAAGAUCGGAAGAGCACACGUCU [U7C U8G G9U U11G C13A] | 1.21
GGGUCGCGUUGCGAUAAUCGCGUGGAUAUGGCACGCAAGUUUCUACCGGGCACCGUAAAUGUCCGACUGGAGCCGUUCGGGCGGCUAUAAACAGACCUCAGGCCCGAAGCGUGGCGGCACCUGCCGCCGGUGGUAAAAAAGAUCGGAAGAGCACACGUCU [U7C U8G G9U U11G C13G] | 1.04
GGGUCGCGGAUGAAUAAUCGCGUGGAUAUGGCACGCAAGUUUCUACCGGGCACCGUAAAUGUCCGACUGGAGCCGUUCGGGCGGCUAUAAACAGACCUCAGGCCCGAAGCGUGGCGGCACCUGCCGCCGGUGGUAAAAAAGAUCGGAAGAGCACACGUCU [U7C U8G U10A C12G C13A] | 1.13
GGGUCGCGGAUGGAUAAUCGCGUGGAUAUGGCACGCAAGUUUCUACCGGGCACCGUAAAUGUCCGACUGGAGCCGUUCGGGCGGCUAUAAACAGACCUCAGGCCCGAAGCGUGGCGGCACCUGCCGCCGGUGGUAAAAAAGAUCGGAAGAGCACACGUCU [U7C U8G U10A C12G C13G] | 1.1
GGGUCGCGGAUGUAUAAUCGCGUGGAUAUGGCACGCAAGUUUCUACCGGGCACCGUAAAUGUCCGACUGGAGCCGUUCGGGCGGCUAUAAACAGACCUCAGGCCCGAAGCGUGGCGGCACCUGCCGCCGGUGGUAAAAAAGAUCGGAAGAGCACACGUCU [U7C U8G U10A C12G C13U] | 1.18
GGGUCGCGGAUACAUAAUCGCGUGGAUAUGGCACGCAAGUUUCUACCGGGCACCGUAAAUGUCCGACUGGAGCCGUUCGGGCGGCUAUAAACAGACCUCAGGCCCGAAGCGUGGCGGCACCUGCCGCCGGUGGUAAAAAAGAUCGGAAGAGCACACGUCU [U7C U8G U10A C12A] | 1.41
GGGUCGCGGAUGCAUAAUCGCGUGGAUAUGGCACGCAAGUUUCUACCGGGCACCGUAAAUGUCCGACUGGAGCCGUUCGGGCGGCUAUAAACAGACCUCAGGCCCGAAGCGUGGCGGCACCUGCCGCCGGUGGUAAAAAAGAUCGGAAGAGCACACGUCU [U7C U8G U10A C12G] | 1.18
GGGUCGCGGAUUCAUAAUCGCGUGGAUAUGGCACGCAAGUUUCUACCGGGCACCGUAAAUGUCCGACUGGAGCCGUUCGGGCGGCUAUAAACAGACCUCAGGCCCGAAGCGUGGCGGCACCUGCCGCCGGUGGUAAAAAAGAUCGGAAGAGCACACGUCU [U7C U8G U10A C12U] | 2.01

Variant | aptazyme ON/OFF ratio
GGGUCGCGGAUCCAUAAUCGCGUGGAUAUGGCACGCAAGUUUCUACCGGGCACCGUAAAUGUCCGACUGGAGCCGUUCGGGCGGCUAUAAACAGACCUCAGGCCCGAAGCGUGGCGGCACCUGCCGCCGGUGGUAAAAAAGAUCGGAAGAGCACACGUCU [U7C U8G U10A] | 2.08
GGGUCGCGGAACUAUAAUCGCGUGGAUAUGGCACGCAAGUUUCUACCGGGCACCGUAAAUGUCCGACUGGAGCCGUUCGGGCGGCUAUAAACAGACCUCAGGCCCGAAGCGUGGCGGCACCUGCCGCCGGUGGUAAAAAAGAUCGGAAGAGCACACGUCU [U7C U8G U10A U11A C13U] | 1.29
GGGUCGCGGAACGAUAAUCGCGUGGAUAUGGCACGCAAGUUUCUACCGGGCACCGUAAAUGUCCGACUGGAGCCGUUCGGGCGGCUAUAAACAGACCUCAGGCCCGAAGCGUGGCGGCACCUGCCGCCGGUGGUAAAAAAGAUCGGAAGAGCACACGUCU [U7C U8G U10A U11A C13G] | 1.13
GGGUCGCGGAACAAUAAUCGCGUGGAUAUGGCACGCAAGUUUCUACCGGGCACCGUAAAUGUCCGACUGGAGCCGUUCGGGCGGCUAUAAACAGACCUCAGGCCCGAAGCGUGGCGGCACCUGCCGCCGGUGGUAAAAAAGAUCGGAAGAGCACACGUCU [U7C U8G U10A U11A C13A] | 1.12
GGGUCGCGGAACCAUAAUCGCGUGGAUAUGGCACGCAAGUUUCUACCGGGCACCGUAAAUGUCCGACUGGAGCCGUUCGGGCGGCUAUAAACAGACCUCAGGCCCGAAGCGUGGCGGCACCUGCCGCCGGUGGUAAAAAAGAUCGGAAGAGCACACGUCU [U7C U8G U10A U11A] | 2.1
GGGUCGCGUUGUUAUAAUCGCGUGGAUAUGGCACGCAAGUUUCUACCGGGCACCGUAAAUGUCCGACUGGAGCCGUUCGGGCGGCUAUAAACAGACCUCAGGCCCGAAGCGUGGCGGCACCUGCCGCCGGUGGUAAAAAAGAUCGGAAGAGCACACGUCU [U7C U8G G9U U11G C12U C13U] | 1.29
GGGUCGCGGAAUCAUAAUCGCGUGGAUAUGGCACGCAAGUUUCUACCGGGCACCGUAAAUGUCCGACUGGAGCCGUUCGGGCGGCUAUAAACAGACCUCAGGCCCGAAGCGUGGCGGCACCUGCCGCCGGUGGUAAAAAAGAUCGGAAGAGCACACGUCU [U7C U8G U10A U11A C12U] | 1.57
GGGUCGCGGAAGCAUAAUCGCGUGGAUAUGGCACGCAAGUUUCUACCGGGCACCGUAAAUGUCCGACUGGAGCCGUUCGGGCGGCUAUAAACAGACCUCAGGCCCGAAGCGUGGCGGCACCUGCCGCCGGUGGUAAAAAAGAUCGGAAGAGCACACGUCU [U7C U8G U10A U11A C12G] | 1.08
GGGUCGCGGAAACAUAAUCGCGUGGAUAUGGCACGCAAGUUUCUACCGGGCACCGUAAAUGUCCGACUGGAGCCGUUCGGGCGGCUAUAAACAGACCUCAGGCCCGAAGCGUGGCGGCACCUGCCGCCGGUGGUAAAAAAGAUCGGAAGAGCACACGUCU [U7C U8G U10A U11A C12A] | 1.14
GGGUCGCGGAAAUAUAAUCGCGUGGAUAUGGCACGCAAGUUUCUACCGGGCACCGUAAAUGUCCGACUGGAGCCGUUCGGGCGGCUAUAAACAGACCUCAGGCCCGAAGCGUGGCGGCACCUGCCGCCGGUGGUAAAAAAGAUCGGAAGAGCACACGUCU [U7C U8G U10A U11A C12A C13U] | 1.18
GGGUCGCGGAAAGAUAAUCGCGUGGAUAUGGCACGCAAGUUUCUACCGGGCACCGUAAAUGUCCGACUGGAGCCGUUCGGGCGGCUAUAAACAGACCUCAGGCCCGAAGCGUGGCGGCACCUGCCGCCGGUGGUAAAAAAGAUCGGAAGAGCACACGUCU [U7C U8G U10A U11A C12A C13G] | 1.12
GGGUCGCGGAAAAAUAAUCGCGUGGAUAUGGCACGCAAGUUUCUACCGGGCACCGUAAAUGUCCGACUGGAGCCGUUCGGGCGGCUAUAAACAGACCUCAGGCCCGAAGCGUGGCGGCACCUGCCGCCGGUGGUAAAAAAGAUCGGAAGAGCACACGUCU [U7C U8G U10A U11A C12A C13A] | 1.1
GGGUCGCGGAAUUAUAAUCGCGUGGAUAUGGCACGCAAGUUUCUACCGGGCACCGUAAAUGUCCGACUGGAGCCGUUCGGGCGGCUAUAAACAGACCUCAGGCCCGAAGCGUGGCGGCACCUGCCGCCGGUGGUAAAAAAGAUCGGAAGAGCACACGUCU [U7C U8G U10A U11A C12U C13U] | 1.16
GGGUCGCGGAAUAAUAAUCGCGUGGAUAUGGCACGCAAGUUUCUACCGGGCACCGUAAAUGUCCGACUGGAGCCGUUCGGGCGGCUAUAAACAGACCUCAGGCCCGAAGCGUGGCGGCACCUGCCGCCGGUGGUAAAAAAGAUCGGAAGAGCACACGUCU [U7C U8G U10A U11A C12U C13A] | 1.16
GGGUCGCGGAAUGAUAAUCGCGUGGAUAUGGCACGCAAGUUUCUACCGGGCACCGUAAAUGUCCGACUGGAGCCGUUCGGGCGGCUAUAAACAGACCUCAGGCCCGAAGCGUGGCGGCACCUGCCGCCGGUGGUAAAAAAGAUCGGAAGAGCACACGUCU [U7C U8G U10A U11A C12U C13G] | 1.12
GGGUCGCGGAUCAAUAAUCGCGUGGAUAUGGCACGCAAGUUUCUACCGGGCACCGUAAAUGUCCGACUGGAGCCGUUCGGGCGGCUAUAAACAGACCUCAGGCCCGAAGCGUGGCGGCACCUGCCGCCGGUGGUAAAAAAGAUCGGAAGAGCACACGUCU [U7C U8G U10A C13A] | 1.15
GGGUCGCGGAUCGAUAAUCGCGUGGAUAUGGCACGCAAGUUUCUACCGGGCACCGUAAAUGUCCGACUGGAGCCGUUCGGGCGGCUAUAAACAGACCUCAGGCCCGAAGCGUGGCGGCACCUGCCGCCGGUGGUAAAAAAGAUCGGAAGAGCACACGUCU [U7C U8G U10A C13G] | 1.15
GGGUCGCGGAUCUAUAAUCGCGUGGAUAUGGCACGCAAGUUUCUACCGGGCACCGUAAAUGUCCGACUGGAGCCGUUCGGGCGGCUAUAAACAGACCUCAGGCCCGAAGCGUGGCGGCACCUGCCGCCGGUGGUAAAAAAGAUCGGAAGAGCACACGUCU [U7C U8G U10A C13U] | 1.46

Reference: the RNAGym collection of RNA variant scans (doi:10.1021/acssynbio.7b00057)
